Measurements reported in patent US20110177003A1 (CENTRE NATIONAL DE LA RECHERCHE SCIENTIFIQUE, published 2011).

What was measured:
IFP1.2 = assay: multiple angle light scattering at 785 nm; self-association (homodimer)
[1] = biological target: the molecule itself; assay: size exclusion chromatography; self-association (homodimer)

Molecule	apparent molecular weight (IFP1.2)	binding result [1]
IFP1.2	80 kDa	–
IFP1.0 (DrCBD, 321 amino acids, with the D207H mutation) (other, biliverdin chromophore covalently incorporated (residue not stated), Engineered bacteriophytochrome fragment, reported as a homodimer; also called DrCBD/D207H; drCBD/D207H) MSRDPLPFFPPLYLGGPEITTENCEREPIHIPGSIQPHGALLTADGHSGEVLQMSLNAATFLGQEPTVLRGQTLAALLPEQWPALQAALPPGCPDALQYRATLDWPAAGHLSLTVHRVGELLILEFEPTEAWDSTGPHALRNAMFALESAPNLRALAEVATQTVRELTGFDRVMLYKFAPDATGEVIAEARREGLHAFLGHRFPASHIPAQARALYTRHLLRLTADTRAAAVPLDPVLNPQTNAPTPLGGAVLRATSPMHMQYLRNMGVGSSLSVSVVVGGQLWGLIACHHQTPYVLPPDLRTTLEYLGRLLSLQVQVKEA	–	binds
